The target in experiment [1] is hTIM3-Fc murine CC′ loop (human, CC′ loop replaced by mouse TIM-3). As to the kind of experiment: ELISA, construct coated on plate. On the technique in general: ELISA stands for enzyme-linked immunosorbent assay.
Experiment [2] concerns the target hTIM3-Fc murine FG loop (human, FG loop replaced by mouse TIM-3). As to the kind of experiment: ELISA, construct coated on plate.
Experiment [3] concerns the target hTIM3-Fc murine DE loop (human, DE loop replaced by mouse TIM-3). As to the kind of experiment: ELISA, construct coated on plate.
For experiment [4], the target named is hTIM3-Fc murine BC loop (human, BC loop replaced by mouse TIM-3). The experiment can be described thus: ELISA, construct coated on plate.
Experiment [5] concerns the target hTIM3-Fc WT (human). The experiment can be described thus: ELISA, construct coated on plate.
Experiment [6] addresses hTIM3-Fc murine C′C″ loop (human, C′C″ loop replaced by mouse TIM-3). As to the kind of experiment: ELISA, construct coated on plate.
Experiment [7] deals with human TIM-3 on cells (human) (UniProt Q8TDQ0). As to the kind of experiment: cell-based or functional assay.

Take “anti-TIM-3 mAb F38-2E2 (BioLegend, 345010) (antibody)”: the Absorbance at 450 nm in experiment [1] stood at 0.094 A450; in experiment [2], 1.48 A450; in experiment [3], 0.978 A450; in experiment [4] it was 1.23 A450; in experiment [5], 1.34 A450; in experiment [6], 1.48 A450. The IL-2 secretion by SEB-activated PBMCs (% of the activity of anti-PD-L1) in experiment [7] came out at 50.
